The supplement of paper PMC10567573

B1: ZNF263 (parent)
chain: PEASHLRFRRFRFQEAAGPREALS
B2: LOXL2 (parent)
chain: FSPDGPSRFRKAYKPEQPLVRLRG

Variants of: B1
Assay: protein stability index of a GFP-peptide fusion (GPS, HEK-293T) (PSI 1-6); higher = more stable
Conditions: c terminus: a fixed tail appended
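Note: lentivirally expressed fusions sorted by FACS into six bins by GFP to DsRed ratio, PSI derived from sequencing read proportions per bin multiplied by bin number.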

Protein stability index of substitutions, site by site:
L23: S 3.28, H 3.05, D 3.75, K 3.35, P 2.9, N 3.15, R 3.11, G 3.04, V 2.93, C 2.7, F 2.58, W 1.91, Q 2.97, A 3.44, E 3.5, Y 1.71, I 2.48, T 2.84, M 2.45
A22: P 3.7, M 2.37, C 2.65, N 2.87, T 2.74, L 2.51, R 2.8, V 2.15, I 2.28, W 2.03, H 2.57, G 2.98, K 2.77, S 2.77, D 3.38, Q 2.78, F 2.6, Y 2.29, E 3.15
R20: F 1.62, V 2.65, P 2.24, I 2.48, Q 2.7, T 2.65, K 2.38, L 2.29, D 2.9, Y 1.49, G 2.25, A 3.17, M 2.21, C 2.21, S 2.58, N 2.99, E 3.35, H 2.4, W 1.49
S24: I 2.52, T 2.22, Y 2.37, M 2.19, A 2.28, V 2.2, G 2.3, C 2.42, H 2.68, L 2.65, N 3.28, R 2.69, Q 2.49, E 2.79, D 3.06, W 2.37, K 2.76, F 2.07, P 2.57
P19: R 2.71, Q 3.18, T 3.26, V 2.21, W 2.04, S 2.87, Y 1.69
E21: I 2.04, D 2.54, K 2.45, V 1.85, F 2.34, Y 2.58, G 2.4, P 2.89, T 2.66, H 2.84, N 2.71, C 2.14, W 2.01, L 2.41, S 2.74, M 2.98, R 2.87, Q 3.03, A 2.56

Variants of: B2
Assay: as above
Conditions: c terminus: a fixed tail appended

Protein stability index, by site and new letter:
P3: Q 2.17, N 1.73, A 1.79, W 1.66, Y 2.13, V 2.6, F 2.41, R 2.12, S 2.31, L 1.96, M 2.33, I 2.26, E 1.97, K 1.71, T 2.21, H 1.9, C 1.97, D 2
F1: E 3.56, R 4.12, V 3.65, G 3.2, L 4.19, C 3.23, D 3.9, W 3.12, M 2.95, T 3.33, Y 1.83, K 3.11, I 2.95, H 3.79, Q 3.85, P 4.03, S 3.92, A 2.9, N 3.98
S2: M 2.37, L 1.92, D 3.05, Y 2.36, H 2.68, G 2.11, K 3.23, R 2.96, E 3.62, N 2.01, P 1.97, V 2.07, T 3.36, F 2.48, W 1.84, Q 1.22
D4: I 1.71, N 1.73, F 1.66, C 2.21, M 1.71, E 2.44, A 1.62, K 1.97, P 1.07, H 1.41, G 1.98, L 1.78
